The series is described as follows: protein stability index of a GFP-peptide fusion (GPS, HEK-293T) (PSI 1-6); higher = more stable. The following applies: c terminus: a fixed tail appended.

± gives the standard deviation.
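Note: 24-mer peptide tiles fused after GFP, lentivirally expressed, FACS-sorted into six equal bins by GFP/DsRed ratio, decoded by Illumina sequencing, PSI is the read-weighted mean bin number.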

On to SSGEDDDFKSCPQGPQGREGLAFL [PWWP2B], for which the protein stability index amounted to 4.75 ± 0.23 (treatment: DMSO) and 4.85 ± 0.18 (treatment: MLN4924 1 uM, 8 h).

In turn, SSGQCRRRKRTYWNDSCGEDMEAS [WEE1] yielded a protein stability index (treatment: DMSO) of 4.18 ± 0.43 and a protein stability index (treatment: MLN4924 1 uM, 8 h) of 4.52 ± 0.43.

Regarding SSTTGLFYSAEIICAIEYLHSKEI [PRKX], the protein stability index was found to be 3.13 ± 0.61 (treatment: DMSO) and 3.33 ± 1 (treatment: MLN4924 1 uM, 8 h).

Sequence SVIKNYEDHFPLLFSEASECMLLV [MAGEA10] registered a protein stability index (treatment: DMSO) of 3.3 ± 0.74 and a protein stability index (treatment: MLN4924 1 uM, 8 h) of 2.33 ± 0.046.

Regarding SVNDQCGFGVLRLDADAAQRVVYL [TSPAN10], the protein stability index reads like this: (treatment: DMSO) 2.32 ± 0.27; (treatment: MLN4924 1 uM, 8 h) 2.28 ± 0.23.

Turning to SWAKSIPGFSSLSLSDQMSVLQSV [ESRRA], the protein stability index was 2.5 ± 0.32 (treatment: DMSO) and 2.66 ± 0.17 (treatment: MLN4924 1 uM, 8 h).

As for SWEPLSGPSTPSPVAAQFTSEGTT [FCHO1], the protein stability index amounted to 4.61 ± 0.27 (treatment: DMSO) and 4.74 ± 0.22 (treatment: MLN4924 1 uM, 8 h).

Turning to SYKNLTLKFHKLVNVTIHFRLKTI [MCOLN1], the protein stability index reads like this: (treatment: DMSO) 3.21 ± 0.5; (treatment: MLN4924 1 uM, 8 h) 3.03 ± 0.41.

In turn, TADISSHFQEAIDFIDCVREKGGK [DUSP5] yielded a protein stability index (treatment: DMSO) of 4.4 ± 0.26 and a protein stability index (treatment: MLN4924 1 uM, 8 h) of 4.7 ± 0.22.

Regarding TASFRTSKYLLEEWFQNCYARYHQ [TEKT4], the protein stability index by setting is: (treatment: DMSO) 1.89 ± 0.21; (treatment: MLN4924 1 uM, 8 h) 2.22 ± 0.24.

As to TASYPSDGCGADGLRSRVKYGVKT [NOL4L], the protein stability index was determined as 3.84 ± 0.24 (treatment: DMSO) and 3.98 ± 0.32 (treatment: MLN4924 1 uM, 8 h).

As for TAYNKGRLQSSFWIVDKQHVYIGS [PLD5], the protein stability index (treatment: DMSO) was 2.49 ± 0.45 and the protein stability index (treatment: MLN4924 1 uM, 8 h) worked out at 2 ± 0.27.

As to TDAPEQFISQVTVLKYFSHYMEEN [PLK2], the protein stability index was 2.09 ± 0.28 (treatment: DMSO) and 2.15 ± 0.23 (treatment: MLN4924 1 uM, 8 h).

For TDDQLLALLPSLSHCSQLTTLSFY [PRAME], the protein stability index by setting is: (treatment: DMSO) 2.26 ± 0.37; (treatment: MLN4924 1 uM, 8 h) 2.05 ± 0.3.

As for TDVQKKKLVDAIVSGDTSKLMKIL [RIPK4], the protein stability index was 2.78 ± 0.73 (treatment: DMSO) and 2.77 ± 0.31 (treatment: MLN4924 1 uM, 8 h).

Take TECEPSELFQLQTYSLPPFLKAVL [CDS1]: the protein stability index runs as follows: (treatment: DMSO) 2.65 ± 0.22; (treatment: MLN4924 1 uM, 8 h) 2.56 ± 0.22.

For the sequence TELLAKITNTDVDCLKACQEQIEA [CCND2], the protein stability index is 4.45 ± 0.046 (treatment: DMSO) and 4.61 ± 0.32 (treatment: MLN4924 1 uM, 8 h).

In the case of TENEEQTQLTQNAVSCPYLPSNLL [KCNA4], the protein stability index was 4.49 ± 0.27 (treatment: DMSO) and 4.63 ± 0.12 (treatment: MLN4924 1 uM, 8 h).

For TEPPQNPVTPLGLQNEVPPQPDPV [SERTAD3], the protein stability index runs as follows: (treatment: DMSO) 5.32 ± 0.26; (treatment: MLN4924 1 uM, 8 h) 5.48 ± 0.24.

Regarding TFDNDYSLSELLSQLDSGVSQAVE [RIPK4], the protein stability index is, setting by setting: (treatment: DMSO) 4 ± 0.074; (treatment: MLN4924 1 uM, 8 h) 4.1 ± 0.26.

As for TFEVPEENTAETITRVLYEVFIEW [ZBED1], the protein stability index by setting is: (treatment: DMSO) 2.07 ± 0.4; (treatment: MLN4924 1 uM, 8 h) 2 ± 0.47.

Consider TFEYTLLQPPHESRPQPIYYGFSE [ADAMTSL2], for which the protein stability index is, setting by setting: (treatment: DMSO) 2.47 ± 0.28; (treatment: MLN4924 1 uM, 8 h) 2.58 ± 0.51.

For the sequence TFLTVTDLIGLPWVCFIYTIMSLA [SLC2A12], the protein stability index (treatment: DMSO) worked out at 3.38 ± 0.45 and the protein stability index (treatment: MLN4924 1 uM, 8 h) amounted to 2.84 ± 0.58.

Consider TFQNSVFVATFLRYAVVLNATWLV [SCD], for which the protein stability index was found to be 3.01 ± 0.34 (treatment: DMSO) and 3.43 ± 0.43 (treatment: MLN4924 1 uM, 8 h).

Turning to TGKWYELQDLQVTDILPQMITLSE [USP39], the protein stability index is, setting by setting: (treatment: DMSO) 2.51 ± 0.29; (treatment: MLN4924 1 uM, 8 h) 2.85 ± 0.18.

TIFEKENFIGRQWEISDDYPSLQA [CRYBA1]: the protein stability index reads like this: (treatment: DMSO) 3.26 ± 0.29; (treatment: MLN4924 1 uM, 8 h) 3 ± 0.32.

Turning to TIQKQLKDHSCKDNIREAFQIYDK [EFHC1], the protein stability index (treatment: DMSO) came to 3.22 ± 0.13 and the protein stability index (treatment: MLN4924 1 uM, 8 h) was 3.13 ± 0.13.

TIYGKTFRVVDCDQFTQVFLESQG [EFHC1]: the protein stability index came to 2.19 ± 0.25 (treatment: DMSO) and 2.29 ± 0.39 (treatment: MLN4924 1 uM, 8 h).

With TKFGLFTPGSRIESILMSLPLTAR [CPOX], the protein stability index (treatment: DMSO) was determined as 2.21 ± 0.3 and the protein stability index (treatment: MLN4924 1 uM, 8 h) turned out to be 2.2 ± 0.28.

The values are drawn from the supplement of paper PMC10567573.
